Data on six molecules can be found in PMC5247666, “The Production and Utilization of GDP-glucose in the Biosynthesis of Trehalose 6-Phosphate by Streptomyces venezuelae*” (The Journal of Biological Chemistry, 2016).

Data set [1] concerns the target Streptomyces venezuelae OtsA (trehalose-6-phosphate synthase) (Streptomyces venezuelae). Description: SEC; Superdex 200 10/300 GL calibrated with size standards; 20 mM HEPES pH 7.0, 10 mM MgCl2, 100 mM NaCl; size of the self-associated form.
Data set [2] has as its target T1, SVEN_3027 (Streptomyces venezuelae, UniProt F2R7M8).
T1 construct: synthetic gene, E. coli BL21(DE3)pLysS
Nature of the data set: stopped coupled assay of pyrophosphate (inorganic pyrophosphatase, malachite green). Format: biochemical. As to conditions: glucose 1-phosphate as co-substrate.

Substrate in data set [3]: Nc1nc2c(ncn2[C@@H]2O[C@H](COP(=O)(O)OP(=O)(O)OP(=O)(O)O)[C@@H](O)[C@H]2O)c(=O)[nH]1
The description is as above. As to conditions: glucose 1-phosphate 1 mM fixed. It counts as biochemical, Streptomyces venezuelae. The text has this: (§1) stopped coupled assay of pyrophosphate (inorganic pyrophosphatase, malachite green) on SVEN_2781

Substrate in data set [4]: O=P(O)(O)O[C@H]1O[C@H](CO)[C@@H](O)[C@H](O)[C@@H]1O
The description is as above. It counts as biochemical, Streptomyces venezuelae. To be noted: GTP 0.3 mM fixed.
Source text: as §1

Substrate in data set [5]: O=P(O)(O)O[C@H]1O[C@H](CO)[C@@H](O)[C@H](O)[C@H]1O
The description is as above. Format: biochemical, Streptomyces venezuelae. As to conditions: GTP 0.3 mM fixed.
Source text: as §1

Substrate in data set [6]: Nc1nc2c(ncn2[C@@H]2O[C@H](COP(=O)(O)OP(=O)(O)OP(=O)(O)O)[C@@H](O)[C@H]2O)c(=O)[nH]1
The description is as above. Format: biochemical, Streptomyces venezuelae. To be noted: mannose 1-phosphate 2 mM fixed. The text has this: (§2) stopped coupled assay of pyrophosphate (inorganic pyrophosphatase, malachite green) on SVEN_3972

Substrate in data set [7]: O=P(O)(O)OP(=O)(O)OP(=O)(O)OC[C@H]1O[C@@H](n2cnc3c(O)ncnc32)[C@H](O)[C@@H]1O
The description is as above. As to conditions: mannose 1-phosphate 2 mM fixed. It counts as biochemical, Streptomyces venezuelae.
Source text: as §2

Substrate in data set [8]: O=P(O)(O)O[C@H]1O[C@H](CO)[C@@H](O)[C@H](O)[C@@H]1O
Described as above. It counts as biochemical, Streptomyces venezuelae. To be noted: ITP 1 mM fixed.
Source text: as §2

Substrate in data set [9]: O=P(O)(O)O[C@H]1O[C@H](CO)[C@@H](O)[C@H](O)[C@H]1O
Described as above. To be noted: GTP 2 mM fixed. It counts as biochemical, Streptomyces venezuelae.
Source text: as §2

Data set [10] concerns the molecule itself. Description: SEC; Superdex 200 16/600; 50 mM MOPS pH 8.0, 0.025 mM EDTA, 5% (w/v) sucrose; size of the self-associated form.
Substrate in data set [11]: Nc1nc2c(ncn2[C@@H]2O[C@H](COP(=O)(O)OP(=O)(O)O[C@H]3O[C@H](CO)[C@@H](O)[C@H](O)[C@H]3O)[C@@H](O)[C@H]2O)c(=O)[nH]1
Nature of the data set: continuous coupled assay of NDP release (pyruvate kinase/lactate dehydrogenase). It counts as biochemical, Streptomyces venezuelae. As to conditions: glucose 6-phosphate 5 mM fixed. The text has this: (§3) continuous coupled assay of NDP release (pyruvate kinase/lactate dehydrogenase) on S. venezuelae OtsA

Substrate in data set [12]: Nc1ncnc2c1ncn2[C@@H]1O[C@H](COP(=O)(O)OP(=O)(O)O[C@H]2O[C@H](CO)[C@@H](O)[C@H](O)[C@H]2O)[C@@H](O)[C@H]1O
Described as above. Format: biochemical, Streptomyces venezuelae. As to conditions: glucose 6-phosphate 5 mM fixed.
Source text: as §3

The stoichiometry N is the number of molecules, sites or subunits per partner or assembly. The term Km denotes the concentration of substrate that gives half-maximal velocity. As usually defined, the kcat is the number of substrate molecules converted per active site and unit of time at saturation. By kcat/Km is commonly meant the second-order rate constant that governs catalysis at low substrate concentration.

T1 sequence (F2R7M8 entry or part of it): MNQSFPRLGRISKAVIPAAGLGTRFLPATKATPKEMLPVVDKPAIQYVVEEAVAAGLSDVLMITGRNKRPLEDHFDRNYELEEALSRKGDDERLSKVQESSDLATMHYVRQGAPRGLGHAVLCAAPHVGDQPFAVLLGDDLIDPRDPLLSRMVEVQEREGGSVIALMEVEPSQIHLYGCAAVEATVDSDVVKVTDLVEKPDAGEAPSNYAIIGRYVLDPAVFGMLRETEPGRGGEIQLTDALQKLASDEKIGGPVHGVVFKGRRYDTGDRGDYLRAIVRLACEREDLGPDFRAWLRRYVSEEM

“Streptomyces venezuelae OtsA (trehalose-6-phosphate synthase) (enzyme)”: the stoichiometry N in data set [1] came out at 2.

On to `O=c1ccn([C@@H]2O[C@H](COP(=O)(O)OP(=O)(O)OP(=O)(O)O)[C@@H](O)[C@H]2O)c(=O)[nH]1` [UTP], for which the “stopped coupled assay of pyrophosphate (inorganic pyrophosphatase, malachite gre)” value in data set [2] is given as “donor substrate preference was UTP > dTTP ≫ CTP > GTP > ATP > ITP”.

As for `Cc1cn([C@H]2C[C@H](O)[C@@H](COP(=O)(O)OP(=O)(O)OP(=O)(O)O)O2)c(=O)[nH]c1=O` [dTTP], the “stopped coupled assay of pyrophosphate (inorganic pyrophosphatase, malachite gre)” value in data set [2] is listed as “donor substrate preference was UTP > dTTP ≫ CTP > GTP > ATP > ITP”.

B1: SVEN_2781 (Streptomyces venezuelae ATCC 10712) (protein)
chain: MTEAILLVGGKGTRLRPLTVNTPKPMVPAAGVPFLTHQLARARAAGVEHIVLATSYLAEVFEPHFGDGSSLGLSLEYVTEEEPLGTGGAIRNVASRLHSGPDDPVLIFNGDILTGLDIQALVATHSSSGADVSLHLTRVEDPRAFGLVPTDATGRVTAFLEKPQTPEEIVTDQINAGAYVFRRSVIDTIPAGRPVSVERETFPDLLASGAHLQGMVDSTYWLDLGTPQAFVRGSADLVLGRAPSPAVPGRCGDRLVLPSARVAPDAKLTGGTVVGADAVVGDGARITGSTLLAGAVVEPGAVITDSLIGAGARIGARSVLTGAVIGDGAQVGPDNELRDGVRVWCDATLPAGAVRFSSDQ
notes: synthetic gene, E. coli BL21(DE3); active form dimer
Take B1: the Km in [3] was found to be 260 ± 20 µM; in data set [4] it was 2700 ± 300 µM; in data set [5], 1400 ± 100 µM. Moreover, the catalytic constant (kcat) in [3] was determined as 0.159 ± 0.002 s⁻¹; in data set [4], 0.167 ± 0.008 s⁻¹; in data set [5], 0.171 ± 0.004 s⁻¹. Further, the kcat/Km worked out at 610 ± 40 M⁻¹ s⁻¹ in data set [3], 60 ± 10 M⁻¹ s⁻¹ in data set [4] and 120 ± 10 M⁻¹ s⁻¹ in [5].

B2: Streptomyces venezuelae SVEN_3972 (ITP-mannose pyrophosphorylase) (enzyme, UniProt F2RFV6 1-238, looked up)
chain: MHTSPTQAVVLAGGQGSRLRPYTDDRPKPMVEIPGTGTPIIGHQLSWLAAEGVTDAVVSCGHLAEVLQEWLEGADLPLKVTTVVETEPLGRGGGLKYAAAHLPAPDQPWYATNGDIWTRFSLREMAAFHDERDALATLALARPRIPWGAVETDTFGHITDFIEAPPSPFLINAGVYVFSAAFTELLPDLGDHERTTFPRLARERRLAGFPLPQGAYWRAIDTAKDLTEAAKELAAQRG
notes: The His6 tag can be cleaved by TEV protease; also called SVEN15_3882
Consider B2, for which the Km in data set [6] turned out to be 470 ± 30 µM; in data set [7], 170 ± 20 µM; in data set [8], 860 ± 80 µM; in data set [9], 7100 ± 800 µM. In addition, the catalytic constant (kcat) in data set [6] stood at 0.0156 ± 0.0004 s⁻¹; in data set [7], 0.049 ± 0.001 s⁻¹; in data set [8] it was 0.0119 ± 0.0004 s⁻¹; in [9], 0.014 ± 0.001 s⁻¹. For the same molecule, the specificity constant (kcat/Km) in [6] came to 33 ± 2 M⁻¹ s⁻¹; in [7], 300 ± 30 M⁻¹ s⁻¹; in data set [8], 14 ± 1 M⁻¹ s⁻¹; in [9], 2 ± 0.3 M⁻¹ s⁻¹. For the same molecule, in [10], the “stoichiometry N” value came out at 2.

B3: S. venezuelae OtsA (Streptomyces venezuelae ATCC 10712) (protein)
chain: MASVLVASNRGPVSYVRGEDGELDARRGGGGLVSGLSAVSSQDSLWVCAALGEGDREAVRRGIGEPGVRMLDIAPDVYADAYNGIANSVLWFLHHHLYDIPREPVFDAAFRHRWEAYRAYNRAFAEALAAAADEGAAVLVQDYHLALVPGQLRELRPDLRIGHFTHTPWASPEYFRMLPADIGDELLRGMLGADELGFHTSAWASAFLSCAGGEQPRTRVRVHPLGVDAEELRALAHRPQVDERLARLREEVGDRKTIVRVDRTELSKNILRGLLAYRELLTVHPEWRDRVVHLASAYPSRQDLAAYRAYTASVTELAAEINAEFGTADWQPVLVSVEDDFTRSLAAYRLADVALVNPVRDGMNLVAKEIPVVSDAGCALVLSTGAGAYEELKEDALTVHPYDVSETAEALHTALTMPPPERADRTKRLASAATALPPQRWFLNQLEGLSDA
notes: synthetic gene, E. coli SoluBL21; 51 kDa with tag; homodimer (109 kDa by SEC)
B3: in data set [11], the Km was 120 ± 20 µM, the catalytic constant (kcat) is 139 ± 8 s⁻¹ and the kcat/Km was 1.14e+06 ± 223000 M⁻¹ s⁻¹. In data set [12], the Michaelis constant (Km) was 440 ± 50 µM, the catalytic constant (kcat) was determined as 29 ± 1 s⁻¹ and the kcat/Km is 67000 ± 7000 M⁻¹ s⁻¹.
